Measurements as given in US20200262877A1, “ION CHANNEL-BINDING PEPTIDES AND METHODS OF USE THEREOF” (priority 2017, published 2020).

Columns and labels:
5HT3a = target: T1, 5HT3a (Homo sapiens, UniProt P46098); assay: Ion channel panel (IonWorks Barracuda): 5HT3a; format: cell-based
T1 construct: host or cells: HEK293 or CHO
T1 sequence (P46098 whole entry, looked up): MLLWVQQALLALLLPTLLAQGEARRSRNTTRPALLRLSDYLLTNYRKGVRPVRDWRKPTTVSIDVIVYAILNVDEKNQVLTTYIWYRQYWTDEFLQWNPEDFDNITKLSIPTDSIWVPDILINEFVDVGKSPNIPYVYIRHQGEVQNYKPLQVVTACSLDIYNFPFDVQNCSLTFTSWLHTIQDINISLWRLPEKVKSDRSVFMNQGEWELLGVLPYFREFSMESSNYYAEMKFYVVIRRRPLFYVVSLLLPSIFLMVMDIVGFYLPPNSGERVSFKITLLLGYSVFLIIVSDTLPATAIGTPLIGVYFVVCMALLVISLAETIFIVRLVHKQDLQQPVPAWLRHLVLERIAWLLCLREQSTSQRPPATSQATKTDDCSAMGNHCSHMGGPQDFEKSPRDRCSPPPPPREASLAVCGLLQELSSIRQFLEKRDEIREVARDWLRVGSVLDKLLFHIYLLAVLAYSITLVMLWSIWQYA
Experimental: (§1) This example describes a method for assaying ion channel activity in cells.
(§2) Peptides were screened in duplicate at final concentrations of 20 μM and 200 nM, as determined by amino acid analysis, and diluted into HEPES buffered physiological saline (HBPS). HEK293 or CHO cells from the American Type Culture Collection (ATCC) were transfected with the appropriate ion channel before use. HEK293 cells were grown in Dulbecco's Modified Eagle Medium/Nutrient Mixture F-12, and CHO cells were cultured in Ham's F-12 media. All cultures were supplemented with 10% fetal bovine serum, 100 U/ml penicillin G, 100 μg/ml streptomycin sulfate, and the appropriate selection antibiotics. Prior to use, cells were washed twice with Hank's Balanced Salt Solution, and treated with Accutase cell detachment solution (Sigma-Aldrich). Cells were then washed. Peptides and controls were incubated with cells for at least five minutes.
(§3) Percent inhibition was defined as: (1-(Ipeptide/Icontrol))×100%).
(§4) Percent values were calculated using the following formula: % activation=(IPeptide/Icontrol)×100%, where IPeptide is the current produced by co-application a peptide with agonist, and Icontrol refers to the current produced by stimulation in control. Control used for each ion channel is the reference compound matched to a particular channel, as illustrated in TABLE 10 below.

α3β4 = target: T2, α3β4 (Homo sapiens, UniProt P30926+P32297); assay: Ion channel panel (IonWorks Barracuda): α3β4; format: cell-based; settings: 100% = no change, <100% = inhibition
T2 construct: host or cells: HEK293 or CHO
Experimental: as §1, §2, §3, §4

α4β2 = target: T3, α4β2 (Homo sapiens, UniProt P17787+P43681); assay: Ion channel panel (IonWorks Barracuda): α4β2; format: cell-based; settings: 100% = no change, <100% = inhibition
T3 construct: host or cells: HEK293 or CHO
Method in brief: (§5)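 Transfected HEK293 or CHO cells were exposed for at least 5 min to peptides at 200 nM and 20 μM final, tested in duplicate, in HEPES-buffered physiological saline. Activation was taken as peptide-plus-agonist current over control current ×100, and inhibition as 1 minus that ratio ×100. Each channel's control was its own reference compound.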

Cav2.1 = target: T4, Cav2.1 (Homo sapiens, UniProt O00555); assay: cell-based; settings: 100% = no change, <100% = inhibition
T4 construct: host or cells: HEK293 or CHO
Method in brief: as §5

Cav2.2 = target: T5, Cav2.2 (Homo sapiens, UniProt Q00975); assay: cell-based; settings: 100% = no change, <100% = inhibition
T5 construct: host or cells: HEK293 or CHO
Method in brief: as §5

Kv2.1 = target: T6, Kv2.1 (Homo sapiens, UniProt Q14721); assay: cell-based; settings: 100% = no change, <100% = inhibition
T6 construct: host or cells: HEK293 or CHO
Method in brief: as §5

GABA = assay: Ion channel panel (IonWorks Barracuda): GABA; format: cell-based; settings: 100% = no change, <100% = inhibition
Method in brief: as §5

Nav1.5 = Nav1.5 (Homo sapiens, UniProt Q14524); assay: in vitro; settings: 100% = no change; for Activity of Nav1.5 with peptide, expressed as a percentage of the reference compound: peptide at 0.2 μM; for Activity of Nav1.5 with peptide (percentage of the reference compound): peptide at 20 μM
Sequence of Nav1.5 (Q14524 whole entry): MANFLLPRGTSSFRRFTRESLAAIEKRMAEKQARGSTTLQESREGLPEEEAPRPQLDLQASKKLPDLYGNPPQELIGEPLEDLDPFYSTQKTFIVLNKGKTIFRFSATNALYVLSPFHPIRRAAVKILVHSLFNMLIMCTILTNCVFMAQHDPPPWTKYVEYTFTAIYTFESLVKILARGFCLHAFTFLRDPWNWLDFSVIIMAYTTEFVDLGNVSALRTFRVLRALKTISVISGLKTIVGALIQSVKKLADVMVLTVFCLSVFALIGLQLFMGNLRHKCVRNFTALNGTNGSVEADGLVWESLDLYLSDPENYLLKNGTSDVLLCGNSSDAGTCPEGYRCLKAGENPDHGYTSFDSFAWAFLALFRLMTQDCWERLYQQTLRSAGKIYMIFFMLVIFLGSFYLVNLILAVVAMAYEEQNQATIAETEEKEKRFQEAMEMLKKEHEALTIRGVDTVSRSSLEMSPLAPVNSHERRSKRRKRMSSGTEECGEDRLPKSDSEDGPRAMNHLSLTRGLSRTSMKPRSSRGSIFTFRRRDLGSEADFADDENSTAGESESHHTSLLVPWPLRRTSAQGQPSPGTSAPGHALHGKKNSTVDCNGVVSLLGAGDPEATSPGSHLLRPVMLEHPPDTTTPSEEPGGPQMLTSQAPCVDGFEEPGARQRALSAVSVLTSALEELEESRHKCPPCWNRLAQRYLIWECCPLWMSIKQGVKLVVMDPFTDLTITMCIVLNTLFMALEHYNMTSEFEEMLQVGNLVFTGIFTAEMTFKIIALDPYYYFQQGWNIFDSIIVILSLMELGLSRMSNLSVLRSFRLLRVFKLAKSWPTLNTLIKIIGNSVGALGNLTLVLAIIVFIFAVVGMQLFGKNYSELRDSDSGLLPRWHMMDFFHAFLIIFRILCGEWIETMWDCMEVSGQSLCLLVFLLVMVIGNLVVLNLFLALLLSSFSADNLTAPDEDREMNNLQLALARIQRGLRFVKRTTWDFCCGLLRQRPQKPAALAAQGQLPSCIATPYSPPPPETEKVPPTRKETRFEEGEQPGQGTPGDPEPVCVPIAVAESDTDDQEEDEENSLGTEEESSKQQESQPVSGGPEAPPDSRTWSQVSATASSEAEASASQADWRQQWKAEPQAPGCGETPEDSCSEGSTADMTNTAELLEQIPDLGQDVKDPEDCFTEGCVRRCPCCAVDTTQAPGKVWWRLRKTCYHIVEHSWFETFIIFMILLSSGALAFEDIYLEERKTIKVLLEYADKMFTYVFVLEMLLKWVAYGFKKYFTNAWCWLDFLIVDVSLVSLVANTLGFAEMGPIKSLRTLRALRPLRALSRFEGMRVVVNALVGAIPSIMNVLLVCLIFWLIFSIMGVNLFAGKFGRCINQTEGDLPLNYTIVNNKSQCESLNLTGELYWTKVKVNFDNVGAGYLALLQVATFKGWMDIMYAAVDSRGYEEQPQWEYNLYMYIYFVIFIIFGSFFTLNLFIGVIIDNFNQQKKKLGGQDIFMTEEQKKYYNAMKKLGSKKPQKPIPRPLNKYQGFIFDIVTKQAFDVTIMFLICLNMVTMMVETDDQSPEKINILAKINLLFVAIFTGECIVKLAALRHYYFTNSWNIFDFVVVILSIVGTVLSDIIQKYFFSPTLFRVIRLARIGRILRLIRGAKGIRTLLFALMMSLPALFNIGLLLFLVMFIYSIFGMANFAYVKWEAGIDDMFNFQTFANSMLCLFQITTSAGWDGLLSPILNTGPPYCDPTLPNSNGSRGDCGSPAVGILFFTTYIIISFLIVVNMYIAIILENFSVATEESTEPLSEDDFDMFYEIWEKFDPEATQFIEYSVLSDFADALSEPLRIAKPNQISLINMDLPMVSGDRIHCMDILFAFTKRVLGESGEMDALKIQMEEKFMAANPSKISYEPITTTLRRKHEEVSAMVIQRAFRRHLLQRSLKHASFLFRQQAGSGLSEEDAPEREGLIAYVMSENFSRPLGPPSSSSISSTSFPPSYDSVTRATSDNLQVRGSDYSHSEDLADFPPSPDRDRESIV
Experimental: as §1, §2, §3, §4

hERG = hERG (Homo sapiens, UniProt Q12809); assay: in vitro; settings: 100% = no change, <100% = inhibition
Experimental: as §1, §2, §3, §4

Kir2.1 = target: T7, Kir2.1 (Homo sapiens, UniProt P63252); assay: Ion channel panel (IonWorks Barracuda): Kir2.1; format: cell-based; settings: 100% = no change, <100% = inhibition
T7 construct: host or cells: HEK293 or CHO
Method in brief: as §5

Kv1.1 = target: T8, Kv1.1 (Homo sapiens, UniProt Q09470); assay: cell-based; format: cell-based; settings: 100% = no change, <100% = inhibition
T8 construct: host or cells: HEK293 or CHO
Method in brief: as §5

Kv1.2 = target: T9, Kv1.2 (Homo sapiens, UniProt P16389); assay: cell-based; format: cell-based; settings: 100% = no change, <100% = inhibition
T9 construct: host or cells: HEK293 or CHO
T9 sequence (P16389 whole entry): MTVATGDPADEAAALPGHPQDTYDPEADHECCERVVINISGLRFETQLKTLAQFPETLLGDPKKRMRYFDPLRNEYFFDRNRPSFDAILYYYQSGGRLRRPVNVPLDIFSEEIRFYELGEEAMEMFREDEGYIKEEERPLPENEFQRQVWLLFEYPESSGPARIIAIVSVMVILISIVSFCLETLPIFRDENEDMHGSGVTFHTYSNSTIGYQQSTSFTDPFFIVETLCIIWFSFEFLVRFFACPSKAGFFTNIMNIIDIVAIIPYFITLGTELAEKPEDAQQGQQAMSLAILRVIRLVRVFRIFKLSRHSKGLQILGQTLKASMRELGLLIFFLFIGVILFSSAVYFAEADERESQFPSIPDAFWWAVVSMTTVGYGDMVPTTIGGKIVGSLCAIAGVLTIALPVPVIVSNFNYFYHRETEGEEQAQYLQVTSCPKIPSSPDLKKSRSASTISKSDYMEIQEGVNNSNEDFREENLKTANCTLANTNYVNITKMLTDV
Method in brief: as §5

Kv1.3 = target: T10, Kv1.3 (Homo sapiens, UniProt P22001); assay: cell-based; format: cell-based; settings: 100% = no change, <100% = inhibition
T10 construct: host or cells: HEK293 or CHO
T10 sequence (P22001 whole entry): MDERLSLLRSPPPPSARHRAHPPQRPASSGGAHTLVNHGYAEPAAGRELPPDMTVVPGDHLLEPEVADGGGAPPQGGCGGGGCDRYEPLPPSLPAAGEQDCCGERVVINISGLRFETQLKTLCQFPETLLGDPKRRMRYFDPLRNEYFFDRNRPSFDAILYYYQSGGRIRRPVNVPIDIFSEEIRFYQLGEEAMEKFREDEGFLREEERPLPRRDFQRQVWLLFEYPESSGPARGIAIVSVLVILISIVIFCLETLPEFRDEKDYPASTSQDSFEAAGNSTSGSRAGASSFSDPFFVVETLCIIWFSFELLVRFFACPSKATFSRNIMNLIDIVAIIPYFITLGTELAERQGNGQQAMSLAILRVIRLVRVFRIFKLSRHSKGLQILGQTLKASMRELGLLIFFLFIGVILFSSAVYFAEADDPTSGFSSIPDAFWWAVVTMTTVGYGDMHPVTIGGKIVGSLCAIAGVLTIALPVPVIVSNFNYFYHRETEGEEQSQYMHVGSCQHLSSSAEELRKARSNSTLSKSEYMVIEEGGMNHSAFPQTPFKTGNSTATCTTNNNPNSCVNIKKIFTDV
Method in brief: as §5

Nav1.7 = target: T11, Nav1.7 (Homo sapiens, UniProt Q15858); assay: cell-based; format: cell-based; settings: 100% = no change; for Activity of Nav1.7 with peptide, expressed as a percentage of the reference compound: peptide at 0.2 μM; for Activity of Nav1.7 with peptide (percentage of the reference compound): peptide at 20 μM
T11 construct: host or cells: HEK293 or CHO
T11 sequence (Q15858 whole entry): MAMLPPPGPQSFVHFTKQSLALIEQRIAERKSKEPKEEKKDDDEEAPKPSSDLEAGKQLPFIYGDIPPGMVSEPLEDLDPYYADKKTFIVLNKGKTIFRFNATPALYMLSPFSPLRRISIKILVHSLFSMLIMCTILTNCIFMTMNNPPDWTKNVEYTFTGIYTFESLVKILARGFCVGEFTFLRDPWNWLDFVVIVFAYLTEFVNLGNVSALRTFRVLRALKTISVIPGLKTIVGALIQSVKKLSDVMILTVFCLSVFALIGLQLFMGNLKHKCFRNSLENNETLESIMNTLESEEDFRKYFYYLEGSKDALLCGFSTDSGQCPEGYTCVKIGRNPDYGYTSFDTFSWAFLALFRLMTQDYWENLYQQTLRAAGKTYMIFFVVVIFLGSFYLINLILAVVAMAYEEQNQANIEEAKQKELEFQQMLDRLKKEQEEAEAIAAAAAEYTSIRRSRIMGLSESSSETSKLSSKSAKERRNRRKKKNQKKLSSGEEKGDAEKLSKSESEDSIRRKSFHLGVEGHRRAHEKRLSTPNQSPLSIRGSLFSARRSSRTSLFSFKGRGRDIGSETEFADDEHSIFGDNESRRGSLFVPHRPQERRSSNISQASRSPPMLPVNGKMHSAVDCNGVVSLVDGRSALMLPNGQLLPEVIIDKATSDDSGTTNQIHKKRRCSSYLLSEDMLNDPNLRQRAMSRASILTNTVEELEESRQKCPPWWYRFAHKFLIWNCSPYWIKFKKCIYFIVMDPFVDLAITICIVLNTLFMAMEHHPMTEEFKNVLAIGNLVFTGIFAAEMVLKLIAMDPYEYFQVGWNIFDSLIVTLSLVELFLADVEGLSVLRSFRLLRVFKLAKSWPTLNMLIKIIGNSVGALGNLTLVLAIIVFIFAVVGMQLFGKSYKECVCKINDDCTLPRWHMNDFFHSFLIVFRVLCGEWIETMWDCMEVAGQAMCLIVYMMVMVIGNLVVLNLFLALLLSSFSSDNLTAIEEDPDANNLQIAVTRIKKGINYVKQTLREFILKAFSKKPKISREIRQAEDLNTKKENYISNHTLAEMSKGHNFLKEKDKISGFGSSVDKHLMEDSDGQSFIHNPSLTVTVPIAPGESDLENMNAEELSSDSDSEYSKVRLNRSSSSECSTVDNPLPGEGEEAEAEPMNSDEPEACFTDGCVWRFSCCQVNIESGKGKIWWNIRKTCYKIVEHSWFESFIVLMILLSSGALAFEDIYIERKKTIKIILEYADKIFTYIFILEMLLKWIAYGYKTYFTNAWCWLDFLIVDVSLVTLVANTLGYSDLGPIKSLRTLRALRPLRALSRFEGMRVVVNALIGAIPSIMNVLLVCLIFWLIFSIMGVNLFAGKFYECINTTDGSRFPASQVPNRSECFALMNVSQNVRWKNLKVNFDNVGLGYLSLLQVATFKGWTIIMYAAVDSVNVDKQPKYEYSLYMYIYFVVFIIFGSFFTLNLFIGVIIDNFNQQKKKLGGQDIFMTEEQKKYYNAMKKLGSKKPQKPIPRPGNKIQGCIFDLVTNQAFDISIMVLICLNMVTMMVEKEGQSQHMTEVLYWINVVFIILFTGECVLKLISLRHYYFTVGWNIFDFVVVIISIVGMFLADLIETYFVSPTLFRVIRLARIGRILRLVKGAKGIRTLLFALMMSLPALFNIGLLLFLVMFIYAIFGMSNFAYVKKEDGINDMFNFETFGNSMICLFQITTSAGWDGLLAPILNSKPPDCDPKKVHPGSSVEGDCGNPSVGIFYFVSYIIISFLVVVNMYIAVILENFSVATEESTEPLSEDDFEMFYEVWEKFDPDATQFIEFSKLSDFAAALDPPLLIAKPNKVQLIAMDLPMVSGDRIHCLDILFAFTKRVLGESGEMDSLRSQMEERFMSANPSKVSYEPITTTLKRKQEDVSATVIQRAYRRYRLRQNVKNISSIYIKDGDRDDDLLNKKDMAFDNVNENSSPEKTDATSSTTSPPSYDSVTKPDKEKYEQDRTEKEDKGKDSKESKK

NR2A = target: T12, NR2A (Homo sapiens, UniProt Q12879); assay: Ion channel panel (IonWorks Barracuda): NR2A; format: cell-based; settings: 100% = no change, <100% = inhibition
T12 construct: host or cells: HEK293 or CHO
Experimental: as §1, §2, §3, §4

NR2B = target: T13, NR2B (Homo sapiens, UniProt Q13224); assay: Ion channel panel (IonWorks Barracuda): NR2B; format: cell-based; settings: 100% = no change, <100% = inhibition
T13 construct: host or cells: HEK293 or CHO
Experimental: as §1, §2, §3, §4

TRPA1 = target: T14, TRPA1 (Homo sapiens, UniProt O75762); assay: Ion channel panel (IonWorks Barracuda): TRPA1; format: cell-based; settings: 100% = no change, <100% = inhibition
T14 construct: host or cells: HEK293 or CHO
Experimental: as §1, §2, §3, §4

TRPV1 = target: T15, TRPV1 (Homo sapiens, UniProt Q8NER1); assay: Ion channel panel (IonWorks Barracuda): TRPV1; format: cell-based; settings: 100% = no change, <100% = inhibition
T15 construct: host or cells: HEK293 or CHO
Method in brief: as §5

[1] = first of two Nav1.5 columns (probably TP1)
[2] = second of two Nav1.5 columns (probably TP2)
[3] = first of two Nav1.7 columns (probably TP1)
[4] = second of two Nav1.7 columns (probably TP2)

## 6 (GSVRIPVSCKHSGQCLKPCKDAGMRFGKCMNGKCDCTPK) [compound 6]
5HT3a
  Activity of 5HT3a with peptide (percentage of the reference compound): 84%
  Activity of 5HT3a with peptide, expressed as a percentage of the reference compound: 85%
α3β4; peptide at 0.2 μM
  Activity of a3b4 with peptide, expressed as a percentage of the reference compound: 100%
α3β4; peptide at 20 μM
  Activity of a3b4 with peptide (percentage of the reference compound): 95%
α4β2; peptide at 0.2 μM
  Activity of a4b2 with peptide, expressed as a percentage of the reference compound: 71%
α4β2; peptide at 20 μM
  Activity of a4b2 with peptide (percentage of the reference compound): 96%
Cav2.1; peptide at 0.2 μM
  Activity of Cav2.1 with peptide, expressed as a percentage of the reference compound: 109%
Cav2.1; peptide at 20 μM
  Activity of Cav2.1 with peptide (percentage of the reference compound): 111%
Cav2.2; peptide at 0.2 μM
  Activity of Cav2.2 with peptide, expressed as a percentage of the reference compound: 103%
Cav2.2; peptide at 20 μM
  Activity of Cav2.2 with peptide (percentage of the reference compound): 107%
Kv2.1; peptide at 0.2 μM
  Activity of Kv2.1 with peptide, expressed as a percentage of the reference compound: 103%
Kv2.1; peptide at 20 μM
  Activity of Kv2.1 with peptide (percentage of the reference compound): 124%
GABA; peptide at 0.2 μM
  Activity of GABA with peptide, expressed as a percentage of the reference compound: 104%
GABA; peptide at 20 μM
  Activity of GABA with peptide (percentage of the reference compound): 96%
Nav1.5; [1]
  Activity of Nav1.5 with peptide, expressed as a percentage of the reference compound: 105%
  Activity of Nav1.5 with peptide (percentage of the reference compound): 116%
Nav1.5; [2]
  Activity of Nav1.5 with peptide, expressed as a percentage of the reference compound: 104%
  Activity of Nav1.5 with peptide (percentage of the reference compound): 120%
hERG; peptide at 0.2 μM
  Activity of hERG with peptide, expressed as a percentage of the reference compound: 107%
hERG; peptide at 20 μM
  Activity of hERG with peptide (percentage of the reference compound): 71%
Kir2.1; peptide at 0.2 μM
  Activity of Kir2.1 with peptide, expressed as a percentage of the reference compound: 96%
Kir2.1; peptide at 20 μM
  Activity of Kir2.1 with peptide (percentage of the reference compound): 94%
Kv1.1; peptide at 0.2 μM
  Activity of Kv1.1 with peptide, expressed as a percentage of the reference compound: 96%
Kv1.1; peptide at 20 μM
  Activity of Kv1.1 with peptide (percentage of the reference compound): 30%
Kv1.2; peptide at 0.2 μM
  Activity of Kv1.2 with peptide, expressed as a percentage of the reference compound: 81%
Kv1.2; peptide at 20 μM
  Activity of Kv1.2 with peptide (percentage of the reference compound): 85%
Kv1.3; peptide at 0.2 μM
  Activity of Kv1.3 with peptide, expressed as a percentage of the reference compound: 25%
Kv1.3; peptide at 20 μM
  Activity of Kv1.3 with peptide (percentage of the reference compound): 0%
Nav1.7; [3]
  Activity of Nav1.7 with peptide, expressed as a percentage of the reference compound: 98%
  Activity of Nav1.7 with peptide (percentage of the reference compound): 116%
Nav1.7; [4]
  Activity of Nav1.7 with peptide, expressed as a percentage of the reference compound: 95%
  Activity of Nav1.7 with peptide (percentage of the reference compound): 119%
NR2A; peptide at 0.2 μM
  Activity of NR2A with peptide, expressed as a percentage of the reference compound: 86%
NR2A; peptide at 20 μM
  Activity of NR2A with peptide (percentage of the reference compound): 88%
NR2B; peptide at 0.2 μM
  Activity of NR2B with peptide, expressed as a percentage of the reference compound: 92%
NR2B; peptide at 20 μM
  Activity of NR2B with peptide (percentage of the reference compound): 75%
TRPA1; peptide at 0.2 μM
  Activity of TRPA1 with peptide, expressed as a percentage of the reference compound: 126%
TRPA1; peptide at 20 μM
  Activity of TRPA1 with peptide (percentage of the reference compound): 92%
TRPV1; peptide at 0.2 μM
  Activity of TRPV1 with peptide, expressed as a percentage of the reference compound: 86%
TRPV1; peptide at 20 μM
  Activity of TRPV1 with peptide (percentage of the reference compound): 98%
